We go through 13 molecules from US20130129753A1 (Pfizer, published 2013).

In one assay the target is Notch receptor (human). In words: cell-based or functional assay.
Assay [1] has as its target T1, IL-13Rα2 receptor (human, UniProt Q14627 27-380).
T1 sequence (looked up): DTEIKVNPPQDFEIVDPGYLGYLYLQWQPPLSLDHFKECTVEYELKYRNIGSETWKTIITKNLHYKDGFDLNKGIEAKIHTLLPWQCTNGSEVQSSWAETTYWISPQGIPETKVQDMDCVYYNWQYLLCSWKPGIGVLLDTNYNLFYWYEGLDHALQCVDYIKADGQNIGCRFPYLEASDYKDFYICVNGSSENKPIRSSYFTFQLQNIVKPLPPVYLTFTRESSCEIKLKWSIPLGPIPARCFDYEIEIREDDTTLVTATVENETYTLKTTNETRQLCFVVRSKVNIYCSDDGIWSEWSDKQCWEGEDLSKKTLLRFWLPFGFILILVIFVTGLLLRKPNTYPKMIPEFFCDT
In words: cell-based or functional assay.

Assay [2] addresses T1, IL-13Rα2 receptor. In words: statement in the example section; no binding assay described.

B1: Notch-75-v1913-hG1-(C)_mcValCitPABC-#54 (antibody, human IgG1, kappa, V domains shown)
VH: EVQLVESGGGLVQPGGSLRLSCAASGYAFTDYWMTWVRQAPGKGLEWVAEISPNSGGTNFNEKFKGRFTISVDNAKNSLYLQMNSLRAEDTAVYYCARGEIRYNWFAYWGQGTLVTVSS
VL: DIQMTQSPSSLSASVGDRVTITCKASQNVGNNIAWYQQKPGKAPKLLIYYASNRYTGVPSRFSGSGYGTDFTLTISSLQPEDFATYYCQRLYNSPFTFGGGTKVEIKR
modifications: drug-linker mcValCitPABC-#54 on cysteine (C), positions not given; drug-linker mcValCitPABC-#54 on cysteine (C), positions not given; DAR 3.8 per antibody
As for B1, in the assay with Notch receptor, the “IC50 (ng Ab/mL), MTS viability of HCC2429 cells (repeat 1)” value (from here on “IC50 … of HCC2429 cells (repeat 1)”) amounted to 611 ng Ab/mL; the “IC50 (ng Ab/mL), MTS viability of HCC2429 cells (repeat 2)” value (from here on “IC50 … of HCC2429 cells (repeat 2)”) was determined as 3300 ng Ab/mL; the “IC50 (ng Ab/mL), MTS viability of MDA-MB-468/hNotch cells (repeat 1)” value (from here on “IC50 … of MDA-MB-468/hNotch cells (repeat 1)”) amounted to 37 ng Ab/mL; the “IC50 (ng Ab/mL), MTS viability of MDA-MB-468/hNotch cells (repeat 2)” value (“IC50 … of MDA-MB-468/hNotch cells (repeat 2)” below) came out at 36 ng Ab/mL. Also, in the assay with Notch receptor, the “IC50 (ng Ab/mL), MTS viability of MDA-MB-468 cells” value is 7000 ng Ab/mL; the “IC50 (ng Ab/mL), MTS viability of OVCAR3 cells” value (shortened to “IC50 … of OVCAR3 cells”) was found to be 515 ng Ab/mL; the “IC50 (ng Ab/mL), MTS viability of U2OS/hNotch cells” value worked out at 523 ng Ab/mL.

B2: Notch-75-v1913-hG1-(C)_mcValCitPABC-#112 (antibody, human IgG1, kappa, V domains shown)
VH: B1 VH
VL: B1 VL
modifications: drug-linker mcValCitPABC-#112 on cysteine (C), positions not given; drug-linker mcValCitPABC-#112 on cysteine (C), positions not given; DAR 4.2 per antibody
For B2, in the assay with Notch receptor, the “IC50 … of HCC2429 cells (repeat 1)” value stood at 214 ng Ab/mL; the “IC50 … of HCC2429 cells (repeat 2)” value turned out to be 630 ng Ab/mL; the “IC50 … of MDA-MB-468/hNotch cells (repeat 1)” value stood at 26 ng Ab/mL; the “IC50 … of MDA-MB-468/hNotch cells (repeat 2)” value turned out to be 25 ng Ab/mL. Moreover, the “IC50 … of OVCAR3 cells” value with Notch receptor amounted to 254 ng Ab/mL.

B3: Notch-28-v1010-hG1-(C)_mcValCitPABC-#54 (antibody, human IgG1, kappa, V domains shown)
VH: EVQLVESGGGLVQPGGSLRLSCAASGFTFRDYGMTWVRQAPGKGLEWVAYISSGSNYIYYAEAVKGRFTISRDNAKNSLYLQMNSLRAEDTAVYYCARRGPFVLDAWGQGTLVTVSS
VL: DIQMTQSPSSLSASVGDRVTITCKASQSINRYLHWYQQKPGKAPKLLIYNANGLQTGVPSRFSGSGSGTDFTLTISSLQPEDFATYYCLQHNTWPDTFGGGTKVEIKR
modifications: drug-linker mcValCitPABC-#54 on cysteine (C), positions not given; drug-linker mcValCitPABC-#54 on cysteine (C), positions not given; DAR 3.9 per antibody
Regarding B3, in the assay with Notch receptor, the “IC50 … of HCC2429 cells (repeat 1)” value was 473 ng Ab/mL; the “IC50 … of HCC2429 cells (repeat 2)” value came out at 2940 ng Ab/mL; the “IC50 … of MDA-MB-468/hNotch cells (repeat 1)” value turned out to be 3.2 ng Ab/mL; the “IC50 … of MDA-MB-468/hNotch cells (repeat 2)” value stood at 3 ng Ab/mL. For the same molecule, in the assay with Notch receptor, the “IC50 (ng Ab/mL), MTS viability of MDA-MB-468 cells” value was 6540 ng Ab/mL; the “IC50 … of OVCAR3 cells” value turned out to be 306 ng Ab/mL; the “IC50 (ng Ab/mL), MTS viability of U2OS/hNotch cells” value stood at 1330 ng Ab/mL.

B4: Notch-28-v1010-hG1-(C)_mcValCitPABC-#112 (antibody, human IgG1, kappa, V domains shown)
VH: B3 VH
VL: B3 VL
modifications: drug-linker mcValCitPABC-#112 on cysteine (C), positions not given; drug-linker mcValCitPABC-#112 on cysteine (C), positions not given; DAR 3.9 per antibody
On to B4, for which, in the assay with Notch receptor, the “IC50 … of HCC2429 cells (repeat 1)” value is 148 ng Ab/mL; the “IC50 … of HCC2429 cells (repeat 2)” value turned out to be 2050 ng Ab/mL; the “IC50 … of MDA-MB-468/hNotch cells (repeat 1)” value amounted to 1.3 ng Ab/mL; the “IC50 … of MDA-MB-468/hNotch cells (repeat 2)” value is 3 ng Ab/mL. For the same molecule, in the assay with Notch receptor, the “IC50 … of OVCAR3 cells” value stood at 17 ng Ab/mL.

B5: IL13Ra2-AB08-v1010-hG1-(C)_mcValCitPABC-#54 (antibody, V domains shown)
VH: EVQLVESGGGLVQPGGSLRLSCAASGFTFSRNGMSWVRQAPGKGLEWVATVSSGGSYIYYADSVKGRFTISRDNAKNSLYLQMNSLRAEDTAVYYCARQGTTALATRFFDVWGQGTLVTVSS
VL: DIQMTQSPSSLSASVGDRVTITCKASQDVGTAVAWYQQKPGKAPKLLIYSASYRSTGVPSRFSGSGSGTDFTLTISSLQPEDFATYYCQHHYSAPWTFGGGTKVEIKT
modifications: drug-linker mcValCitPABC-#54 on cysteine (C), positions not given; drug-linker mcValCitPABC-#54 on cysteine (C), positions not given; DAR 3.2 per antibody
On to B5, for which, in the assay with IL-13Rα2 receptor [1], the “IC50 (ng Ab/mL), viability of A375 cells” value was found to be 3.8 ng Ab/mL and the “IC50 (ng Ab/mL), viability of PC3MM2 cells” value (shortened to “IC50 … of PC3MM2 cells”) turned out to be 2.5 ng Ab/mL.

B6: IL13Ra2-AB08-v1010-hG1-(C)_mcValCitPABC-#112 (antibody, V domains shown)
VH: B5 VH
VL: B5 VL
modifications: drug-linker mcValCitPABC-#112 on cysteine (C), positions not given; drug-linker mcValCitPABC-#112 on cysteine (C), positions not given; DAR 4 per antibody
On to B6, for which, in the assay with IL-13Rα2 receptor [1], the “IC50 (ng Ab/mL), viability of A375 cells” value stood at 2.2 ng Ab/mL and the “IC50 … of PC3MM2 cells” value stood at 1.2 ng Ab/mL.

B7: IL13Ra2-AB08-v1010-hG1-(C)_Mal(H2O)Peg6C2-0#118 (antibody, V domains shown)
VH: B5 VH
VL: B5 VL
modifications: drug-linker Mal(H2O)Peg6C2-0#118 on cysteine (C), positions not given; drug-linker Mal(H2O)Peg6C2-0#118 on cysteine (C), positions not given; DAR 2.9 per antibody
In the case of B7, in the assay with IL-13Rα2 receptor [1], the “IC50 (ng Ab/mL), viability of A375 cells” value was determined as 4.9 ng Ab/mL and the “IC50 … of PC3MM2 cells” value turned out to be 2.9 ng Ab/mL.

B8: IL13Ra2-AB08-v1010-hG1-(C)_mc-#117 (antibody, V domains shown)
VH: B5 VH
VL: B5 VL
modifications: drug-linker mc-#117 on cysteine (C), positions not given; drug-linker mc-#117 on cysteine (C), positions not given; DAR 3.3 per antibody
For the molecule B8, in the assay with IL-13Rα2 receptor [1], the “IC50 (ng Ab/mL), viability of A375 cells” value is 2.4 ng Ab/mL and the “IC50 … of PC3MM2 cells” value was 1.1 ng Ab/mL.

B9: IL13Ra2-AB08-v1010-hG1-(C)_mc-0#118 (antibody, V domains shown)
VH: B5 VH
VL: B5 VL
modifications: drug-linker mc-0#118 on cysteine (C), positions not given; drug-linker mc-0#118 on cysteine (C), positions not given; DAR 3.2 per antibody
For the molecule B9, in the assay with IL-13Rα2 receptor [1], the “IC50 (ng Ab/mL), viability of A375 cells” value was 2.1 ng Ab/mL and the “IC50 … of PC3MM2 cells” value turned out to be 1.3 ng Ab/mL.

B10: IL13Ra2-AB08-v1010-hG1-(C)_MalPeg6C2-#117 (antibody, V domains shown)
VH: B5 VH
VL: B5 VL
modifications: drug-linker MalPeg6C2-#117 on cysteine (C), positions not given; drug-linker MalPeg6C2-#117 on cysteine (C), positions not given; DAR 3.3 per antibody
Turning to B10, in the assay with IL-13Rα2 receptor [1], the “IC50 (ng Ab/mL), viability of A375 cells” value was found to be 3.4 ng Ab/mL and the “IC50 … of PC3MM2 cells” value was 3.5 ng Ab/mL.

B11: humanized antibody hu08 (antibody, V domains shown)
VH: B5 VH
VL: B5 VL
notes: Unconjugated antibody; also called hu08v1.0/1.0; IL13Ra2-AB08-v1010-hG1
On to B11, for which the binding result with IL-13Rα2 receptor [2] is given as “binds”.

B12: IL13Ra2-AB08-v1010-hG1-(C)_mcValCitPABC-#226 (antibody, V domains shown)
VH: B5 VH
VL: B5 VL
modifications: drug-linker mcValCitPABC-#226 on cysteine (C), positions not given; drug-linker mcValCitPABC-#226 on cysteine (C), positions not given; DAR 3 per antibody
Regarding B12, in the assay with IL-13Rα2 receptor [1], the “IC50 (ng Ab/mL), viability of A375 cells” value turned out to be 2.9 ng Ab/mL and the “IC50 … of PC3MM2 cells” value is 1.5 ng Ab/mL.

B13: IL13Ra2-AB08-v1010-hG1-(C)_mc-#115 (antibody, V domains shown)
VH: B5 VH
VL: B5 VL
modifications: drug-linker mc-#115 on cysteine (C), positions not given; drug-linker mc-#115 on cysteine (C), positions not given; DAR 4.3 per antibody
On to B13, for which, in the assay with IL-13Rα2 receptor [1], the “IC50 (ng Ab/mL), viability of A375 cells” value came to 2.2 ng Ab/mL and the “IC50 … of PC3MM2 cells” value came to 1.2 ng Ab/mL.
